In patent US20050282739A1 (PALATIN TECHNOLOGIES, published 2005):
Square brackets hold non-standard residues; d marks the D form. Ends that are not written are not given here. Nle = CCCC[C@H](N)C(=O)O

Legend:
[1] = molecular target: T1, human melanocortin-5 receptor (hMC5-R) (human, UniProt P33032 1-325); assay: 125I-NDP-α-MSH competition, hMC5-R membranes
T1 construct: whole, on cells; membranes prepared from hMC5-R cells were used; also called Melanocortin Receptor 5
Protocol: (§1) The competitive inhibition binding assay was conducted using membranes prepared from hMC3-R, hMC4-R, hMC5-R, and B-16 mouse melanoma cells (containing MC1-R) using 0.4 nM ¹²⁵I-NDP-alpha-MSH (New England Nuclear, Boston, Mass., USA) in 50 mM HEPES buffer containing 1 mM MgCl₂, 2 mM CaCl₂, and 5 mM KCl, at pH 7.2. […] Incubation was for 90 minutes at room temperature, after which the assay mixture was filtered and the membranes washed three times with ice cold buffer. The filter was dried and counted in a gamma counter for remaining radioactivity bound to the membranes. 100% specific binding was defined as the difference in radioactivity (cpm) bound to cell membranes in the absence and presence of 1 μM α-MSH. […] Each assay was conducted in triplicate and the actual mean valves are described.
(§2) The methods and assays set forth in Example 1 were followed.

[2] = molecular target: T2, melanocortin-1 receptor (MC1-R) of B-16 mouse melanoma cells (mouse, UniProt Q01727 1-315); assay: 125I-NDP-α-MSH competition, B-16 membranes
T2 construct: whole, on cells; membranes prepared from the cells were used; also called Melanocortin Receptor 1
Protocol: as §1, §2

[3] = molecular target: T3, human melanocortin-4 receptor (hMC4-R) (human, UniProt P32245 1-332); assay: 125I-NDP-α-MSH competition, hMC4-R membranes
T3 construct: whole, on cells; membranes prepared from hMC4-R cells were used; also called Melanocortin Receptor 4
Protocol: as §1, §2

[4] = molecular target: T4, human melanocortin-3 receptor (hMC3-R) (human, UniProt P41968 1-323); assay: 125I-NDP-α-MSH competition, hMC3-R membranes
T4 construct: whole, on cells; membranes prepared from hMC3-R cells were used; also called Melanocortin Receptor 3
Protocol: as §1, §2

T4 sequence (P41968 whole entry): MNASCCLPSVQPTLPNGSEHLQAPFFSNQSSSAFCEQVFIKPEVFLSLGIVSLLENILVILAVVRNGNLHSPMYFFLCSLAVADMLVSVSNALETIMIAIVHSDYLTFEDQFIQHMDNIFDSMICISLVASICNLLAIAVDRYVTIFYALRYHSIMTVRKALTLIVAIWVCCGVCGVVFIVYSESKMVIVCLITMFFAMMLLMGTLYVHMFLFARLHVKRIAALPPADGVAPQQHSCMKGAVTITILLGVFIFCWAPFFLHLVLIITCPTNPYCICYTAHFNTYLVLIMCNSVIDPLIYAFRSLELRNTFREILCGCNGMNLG
T1 sequence (P33032 whole entry): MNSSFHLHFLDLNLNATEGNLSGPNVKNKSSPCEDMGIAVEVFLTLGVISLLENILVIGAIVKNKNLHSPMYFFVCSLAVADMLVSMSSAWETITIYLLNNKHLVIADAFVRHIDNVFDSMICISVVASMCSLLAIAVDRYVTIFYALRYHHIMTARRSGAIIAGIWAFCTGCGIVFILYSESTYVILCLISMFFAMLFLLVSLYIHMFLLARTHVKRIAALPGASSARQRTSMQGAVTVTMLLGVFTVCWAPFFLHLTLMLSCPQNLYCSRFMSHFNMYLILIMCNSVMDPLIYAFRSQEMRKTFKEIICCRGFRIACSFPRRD
T2 sequence (Q01727 whole entry): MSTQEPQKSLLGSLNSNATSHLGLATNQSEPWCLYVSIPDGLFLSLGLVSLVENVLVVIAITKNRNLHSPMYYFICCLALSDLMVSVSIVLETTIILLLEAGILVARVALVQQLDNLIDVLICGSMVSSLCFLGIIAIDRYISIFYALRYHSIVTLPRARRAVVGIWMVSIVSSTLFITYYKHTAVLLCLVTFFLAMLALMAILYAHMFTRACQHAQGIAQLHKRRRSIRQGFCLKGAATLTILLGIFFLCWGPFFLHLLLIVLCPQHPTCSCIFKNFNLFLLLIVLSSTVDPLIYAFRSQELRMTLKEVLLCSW
T3 sequence (P32245 whole entry): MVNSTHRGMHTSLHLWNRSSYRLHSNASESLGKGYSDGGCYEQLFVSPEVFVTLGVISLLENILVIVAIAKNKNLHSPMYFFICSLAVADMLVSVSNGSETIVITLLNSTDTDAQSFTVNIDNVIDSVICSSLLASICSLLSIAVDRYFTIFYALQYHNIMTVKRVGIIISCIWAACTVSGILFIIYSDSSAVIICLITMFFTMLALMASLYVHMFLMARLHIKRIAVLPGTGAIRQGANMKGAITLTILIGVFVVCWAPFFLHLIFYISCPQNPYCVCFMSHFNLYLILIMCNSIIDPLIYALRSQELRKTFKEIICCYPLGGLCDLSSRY

Row | % Inhibition at 1 µM [1] [%] | % Inhibition at 1 µM [2] [%] | % Inhibition at 1 µM [3] [%] | % Inhibition at 1 µM [4] [%] | Binder
1 | 24 |  |  |  | YV[Nle]GHFCRWDRF-NH2 (also: oxorhenium(V) N3S1 chelate: C7 SG + backbone N of H5, F6, C7, bridge at 7 via Re(V)=O, other end not in the chain) [metallopeptide 4-6]
2 | 0 | 95 | 37 |  | Ac-SYS[dC][Nle]EHFRWGKPV-NH2 (also: oxorhenium(V) N3S1 chelate at D-Cys4) [metallopeptide 2-11]
3 | 15 |  |  | 17 | YV[Nle]GHCFRWDRF-NH2 (also: oxorhenium(V) N3S1 chelate: C6 SG + backbone N of G4, H5, C6, bridge at 6 via Re(V)=O, other end not in the chain) [metallopeptide 4-7]
4 | 45 | 13 |  | 33 | YV[Nle]GCHFRWDRF-NH2 (also: oxorhenium(V) N3S1 chelate: C5 SG + backbone N of X3, G4, C5, bridge at 5 via Re(V)=O, other end not in the chain) [metallopeptide 4-8]
5 | 17 | 97 | 47 | 21 | Ac-SY[dC]S[Nle]EHFRWGKPV-NH2 (also: oxorhenium(V) N3S1 chelate at D-Cys3) [metallopeptide 2-12]
6 | 29 | 69 | 25 | 0 | Ac-SYS[Nle]EH[dC]FRWGKPV-NH2 (also: oxorhenium(V) N3S1 chelate at D-Cys 7) [metallopeptide 2-8]
7 | 17 | 28 |  | 10 | YVC[Nle]GHFRWDRF-NH2 (bridge (positions not given here); not fully specified (bridges); printed as Tyr-Val-Cys-Nle-Gly-His-Phe-Arg-Trp-Asp-Arg-Phe-NH2.; also: oxorhenium(V) N3S1 complex) [metallopeptide 4-10]
8 | 2 | 92 | 35 | 13 | Ac-SYS[Nle]E[dC]HFRWGKPV-NH2 (also: oxorhenium(V) N3S1 chelate at D-Cys 6) [metallopeptide 2-9]
9 | 43 |  |  | 19 | YV[Nle]CGHFRWDRF-NH2 (also: oxorhenium(V) N3S1 chelate: C4 SG + backbone N of V2, X3, C4, bridge at 4 via Re(V)=O, other end not in the chain) [metallopeptide 4-9]
10 | 41 | 56 | 36 | 69 | YVXGHFRWDRFC (not fully specified; Nle 3; C-terminal amide; Re complexed at Cys 12) [metallopeptide 4-1]
11 | 43 | 83 | 58 | 85 | YVXGHFRWDRF (Nle 3; C-terminal amide, not complexed to Re) [[Nle3]-γ-MSH parent polypeptide Tyr-Val-Nle-Gly-His-Phe-Arg-Trp-Asp-Arg-Phe-NH2]
12 | 0 | 65 | 18 | 0 | Ac-SYS[Nle][dC]EHFRWGKPV-NH2 (also: oxorhenium(V) N3S1 chelate at D-Cys5) [metallopeptide 2-10]
